Experimental data reported in paper PMC10562560, “Molecular basis for cellular retinoic acid-binding protein 1 in modulating CaMKII activation” (Frontiers in Molecular Biosciences, 2023).
Each block holds one molecule with its values, some of them ahead of it.

Tests used:
[1] = molecular target: His-tagged CRABP1 H94A (Mus musculus); experiment: pull-down; purified His-CRABP1 (WT or mutant, 5 uM) held on Ni-NTA resin as bait; 250 ug pre-cleared lysate of HEK293T cells expressing GFP-CaMKII (DMSO or ionomycin 10 uM, 10 min) as prey; 50 mM Tris pH 8.0, 150 mM NaCl, 0.2% NP-40, 20% glycerol, 200 mM imidazole, overnight at 4°C; Western blot with anti-GFP and anti-His; densitometry gives the CCI (n = 5)
[2] = molecular target: His-tagged CRABP1 T96A (Mus musculus); experiment: as above
[3] = molecular target: His-tagged CRABP1 R29A (Mus musculus); experiment: as above
[4] = molecular target: T1, 15N-labeled wild-type cellular retinoic acid-binding protein 1 (CRABP1) (Mus musculus, UniProt P62965 2-137, 15N-labeled); experiment: NMR titration; 15N-1H HSQC of 15N-labeled CRABP1 (19 uM) without and with CaMK-R peptide (200 uM); 30 mM d11-Tris-d3-acetate pH 6.2, 75 mM Na2SO4, 10 uM ZnCl2, 1 mM TCEP, 30°C; details: both partners purified
T1 construct: also called 15N-labeled CRABP1; 15N WT CRABP1; source: expressed and purified as described in Park et al. (2019); SEC
T1 sequence (P62965 2-137): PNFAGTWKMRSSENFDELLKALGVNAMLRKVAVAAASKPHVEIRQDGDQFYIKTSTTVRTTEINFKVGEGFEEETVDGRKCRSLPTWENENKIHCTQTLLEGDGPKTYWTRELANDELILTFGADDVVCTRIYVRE

- CRABP1–CaMKII Complex Index (CCI; ratio of inactive to active CaMKII pulled down) [1]: 1
- CRABP1–CaMKII Complex Index (CCI; ratio of inactive to active CaMKII pulled down) [2]: 1
Molecule: GFP-CaMKII beta, inactive (from vehicle-treated HEK293T cells) (from UniProt P08413 1-542) (enzyme)

- CRABP1–CaMKII Complex Index (CCI; ratio of inactive to active CaMKII pulled down) [3]: 1
Molecule: GFP-CaMKII beta, inactive (from vehicle-treated HEK293T cells) (from UniProt P08413 1-542) (cell lysate)

- binding result [4]: binds
B1: CaMK-R peptide (29-residue peptide, residues 281–309 of the regulatory segment of CaMKII alpha) (peptide, UniProt P11798 281-309, looked up)
peptide: MHRQETVDCLKKFNARRKLKGAILTTMLA
notes: also called CAMKII-R; CaMKII peptide; source: synthetic peptide (University of Minnesota Peptide Synthesis Services)
